The text below walks through data of patent publication US20140120555A1.

In experiment [1] the target is human CXCR4 (Chemokine receptor 4) (human) (UniProt P61073). As to the kind of experiment: FACS on NIH3T3-CXCR4 transfected cells, 10 µg/ml antibody.
Experiment [2] shares this target. The experiment can be described thus: FACS on Hela cervix cancer cells (endogenous CXCR4), 10 µg/ml antibody.
For experiment [3] the target is unchanged. As to the kind of experiment: FACS on U937 promyelocytic cancer cells (endogenous CXCR4), 10 µg/ml antibody.
Experiment [4] has the same target. The experiment can be described thus: FACS on MDA-MB-231 breast cancer cells (endogenous CXCR4), 10 µg/ml antibody.

Sequence of human CXCR4 (Chemokine receptor 4) (human) (P61073 whole entry): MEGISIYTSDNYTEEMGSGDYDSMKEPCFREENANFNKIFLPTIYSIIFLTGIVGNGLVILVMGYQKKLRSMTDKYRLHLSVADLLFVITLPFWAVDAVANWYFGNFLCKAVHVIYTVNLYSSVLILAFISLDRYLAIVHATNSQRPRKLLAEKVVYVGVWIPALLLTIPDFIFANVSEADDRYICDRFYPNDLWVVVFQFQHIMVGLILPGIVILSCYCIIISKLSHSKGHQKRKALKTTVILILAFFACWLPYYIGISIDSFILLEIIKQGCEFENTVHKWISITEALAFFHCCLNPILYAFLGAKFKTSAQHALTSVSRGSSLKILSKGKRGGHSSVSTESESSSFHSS

B1: murine monoclonal antibody 515H7 (hybridoma CNCM I-4019) (antibody, V domains shown)
VH: EVNLVESGGGLVQPGGSLRLSCATSGFTFTDNYMSWVRQPPGKALEWLGFIRNKANGYTTDYSASVRGRFTISRDNSQSILYLQMNALRAEDSATYYCARDVGSNYFDYWGQGTTLTVSS
VL: DIVMSQSPSSLAVSAGEKVTMSCKSSQSLFNSRTRKNYLAWYQQKPGQSPKLLIYWASARDSGVPARFTGSGSETYFTLTISRVQAEDLAVYYCMQSFNLRTFGGGTKLEIK
modifications: Biotinylated when used as tracer in the competition assay of Example 3 (site not stated); unlabelled in Example 2.
Regarding B1, the MFI in experiment [1] is 2750 MFI; in experiment [2], 1850 MFI; in experiment [3], 645 MFI; in experiment [4], 239 MFI.
